# How the values were obtained:
# Test in all cases: cell-based or functional assay
# [1] = target: PD-L1 on K562/OKT3/PD-L1 artificial antigen presenting cells (UniProt Q9NZQ7)
# [2] = target: CD28 on Jurkat/IL2 reporter cells (human) (UniProt P10747)
# CD28 (human) = CD28 (human) (UniProt P10747)
# PD-L1 (human) = PD-L1 (human) (UniProt Q9NZQ7)
# Chain of PD-L1 (human) (Q9NZQ7 19-290): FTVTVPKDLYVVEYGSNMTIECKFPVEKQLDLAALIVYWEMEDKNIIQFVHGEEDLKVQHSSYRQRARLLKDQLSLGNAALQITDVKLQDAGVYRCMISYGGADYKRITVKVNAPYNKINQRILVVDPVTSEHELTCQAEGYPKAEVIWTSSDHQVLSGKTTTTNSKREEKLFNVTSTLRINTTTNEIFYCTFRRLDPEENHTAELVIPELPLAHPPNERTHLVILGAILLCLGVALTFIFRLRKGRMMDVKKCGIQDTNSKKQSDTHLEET
# Chain of PD-L1 on K562/OKT3/PD-L1 artificial antigen presenting cells (Q9NZQ7 19-290): as above
Substance,"Fold Increase over WT CD80-IgV-Fc (RLU, Jurkat/IL2 + K562/OKT3/PD-L1 reporter assay, 50 nM) [1] [fold]","Relative Luciferase Units (RLU), Jurkat/IL2 + K562/OKT3/PD-L1 reporter assay, CD80-Fc Conc 50 nM [1] [RLU]","Fold Increase over WT CD80-IgV-Fc (RLU, Jurkat/IL2 + K562/OKT3/PD-L1 reporter assay, 50 nM) [2] [fold]","Relative Luciferase Units (RLU), Jurkat/IL2 + K562/OKT3/PD-L1 reporter assay, CD80-Fc Conc 50 nM [2] [RLU]","IL-2-luciferase RLU, Jurkat + CHO/OKT3/PD-L1 aAPC, 0.6 nM (CD28 (human)) [RLU]","IL-2-luciferase RLU, Jurkat + CHO/OKT3/PD-L1 aAPC, 1.9 nM (CD28 (human)) [RLU]","IL-2-luciferase RLU, Jurkat + CHO/OKT3/PD-L1 aAPC, 5.6 nM (CD28 (human)) [RLU]","IL-2-luciferase RLU, Jurkat + CHO/OKT3/PD-L1 aAPC, 16.7 nM (CD28 (human)) [RLU]","IL-2-luciferase RLU, Jurkat + CHO/OKT3 aAPC (no PD-L1), 5.6 nM (CD28 (human)) [RLU]","IL-2-luciferase RLU, Jurkat + CHO/OKT3 aAPC (no PD-L1), 16.7 nM (CD28 (human)) [RLU]","IL-2-luciferase RLU, Jurkat + CHO/OKT3 aAPC (no PD-L1), 50 nM (CD28 (human)) [RLU]","IL-2 release, primary T cells; K562/OKT3/PD-L1; 10 nM (PD-L1 (human))","IL-2-luciferase RLU, Jurkat + CHO/OKT3/PD-L1 aAPC, 50 nM (CD28 (human)) [RLU]","IL-2 release, primary T cells; K562/OKT3/PD-L1; 1 nM (PD-L1 (human))","IL-2 release, primary T cells; K562/OKT3/PD-L1; 100 nM (PD-L1 (human))"
CD80 E35D/D46E/M47V/A71D IgV-Fc (inert) (Fc fusion),3.3,683,3.3,683,–,–,–,–,–,–,–,–,–,–,–
CD80 E35D/D46E/M47V/A71D/D90G IgV-Fc (inert) (Fc fusion),5.1,1040,5.1,1040,–,–,–,–,–,–,–,–,–,–,–
CD80 E35D/D46V/M47L/V68M/L85Q/E88D IgV-Fc (inert) (Fc fusion),7.1,1460,7.1,1460,–,–,–,–,–,–,–,–,–,–,–
CD80 E35D/K37E/M47V/N48D/L85Q/D90N IgV-Fc (inert) (Fc fusion),4.1,851,4.1,851,–,–,–,–,–,–,–,–,–,–,–
CD80 E35D/M38T/M43V/M47V/N48R/L85Q IgV-Fc (inert) (Fc fusion),3.3,680,3.3,680,–,–,–,–,–,–,–,–,–,–,–
CD80 E35D/M47L/A71G/L85M/F92Y IgV-Fc (inert) (Fc fusion),6.4,1320,6.4,1320,–,–,–,–,–,–,–,–,–,–,–
CD80 E35D/T41S/M43I/M47V/A71G IgV-Fc (inert) (Fc fusion),6.2,1270,6.2,1270,–,–,–,–,–,–,–,–,–,–,–
variant CD80 IgV-Fc (inert) E35D/M43L/L70M (Fc fusion),–,–,–,–,479,525,683,1070,396,439,515,52,–,–,–
variant CD80 IgV-Fc (inert) E35D/M47L (Fc fusion),–,–,–,–,1040,1730,2580,3070,633,731,817,2700,–,268,7530

# The next lines start with the values.
"Fold Increase over WT CD80-IgV-Fc (RLU, Jurkat/IL2 + K562/OKT3/PD-L1 reporter assay, 50 nM) [1] [fold]","Relative Luciferase Units (RLU), Jurkat/IL2 + K562/OKT3/PD-L1 reporter assay, CD80-Fc Conc 50 nM [1] [RLU]","Fold Increase over WT CD80-IgV-Fc (RLU, Jurkat/IL2 + K562/OKT3/PD-L1 reporter assay, 50 nM) [2] [fold]","Relative Luciferase Units (RLU), Jurkat/IL2 + K562/OKT3/PD-L1 reporter assay, CD80-Fc Conc 50 nM [2] [RLU]","IL-2-luciferase RLU, Jurkat + CHO/OKT3/PD-L1 aAPC, 0.6 nM (CD28 (human)) [RLU]","IL-2-luciferase RLU, Jurkat + CHO/OKT3/PD-L1 aAPC, 1.9 nM (CD28 (human)) [RLU]","IL-2-luciferase RLU, Jurkat + CHO/OKT3/PD-L1 aAPC, 5.6 nM (CD28 (human)) [RLU]","IL-2-luciferase RLU, Jurkat + CHO/OKT3/PD-L1 aAPC, 16.7 nM (CD28 (human)) [RLU]","IL-2-luciferase RLU, Jurkat + CHO/OKT3 aAPC (no PD-L1), 5.6 nM (CD28 (human)) [RLU]","IL-2-luciferase RLU, Jurkat + CHO/OKT3 aAPC (no PD-L1), 16.7 nM (CD28 (human)) [RLU]","IL-2-luciferase RLU, Jurkat + CHO/OKT3 aAPC (no PD-L1), 50 nM (CD28 (human)) [RLU]","IL-2 release, primary T cells; K562/OKT3/PD-L1; 10 nM (PD-L1 (human))","IL-2-luciferase RLU, Jurkat + CHO/OKT3/PD-L1 aAPC, 50 nM (CD28 (human)) [RLU]","IL-2 release, primary T cells; K562/OKT3/PD-L1; 1 nM (PD-L1 (human))","IL-2 release, primary T cells; K562/OKT3/PD-L1; 100 nM (PD-L1 (human))",Substance
8.5,1750,8.5,1750,–,–,–,–,–,–,–,–,–,–,–,CD80 A26E/E35D/M47L/A71G IgV-Fc (inert) (Fc fusion)
6.4,1320,6.4,1320,–,–,–,–,–,–,–,–,–,–,–,CD80 E35D/M38T/D46E/M47V/N48S IgV-Fc (inert) (Fc fusion)
5.9,1220,5.9,1220,–,–,–,–,–,–,–,–,–,–,–,CD80 E35D/M47V/A71G/E88D IgV-Fc (inert) (Fc fusion)
4.4,897,4.4,897,–,–,–,–,–,–,–,–,–,–,–,CD80 E35D/M47V/N48T/L85Q IgV-Fc (inert) (Fc fusion)
5.4,1120,5.4,1120,–,–,–,–,–,–,–,–,–,–,–,CD80 E35D/T41S/M43I/A71G/D90G IgV-Fc (inert) (Fc fusion)
7.5,1540,7.5,1540,–,–,–,–,–,–,–,–,–,–,–,CD80 E35D/T41S/M43I/M47L/A71G IgV-Fc (inert) (Fc fusion)
8.1,1670,8.1,1670,–,–,–,–,–,–,–,–,–,–,–,CD80 E35D/T41S/M43V/M47I/L70M/A71G IgV-Fc (inert) (Fc fusion)
–,–,–,–,1050,1730,2790,3670,637,710,894,3430,3780,244,8310,variant CD80 IgV-Fc (inert) E35D/M47I (Fc fusion)
–,–,–,–,1000,1640,2350,2630,549,544,600,6980,2630,311,8390,variant CD80 IgV-Fc (inert) E35D/M47I/L70M (Fc fusion)
–,–,–,–,529,489,554,504,417,475,440,–,476,–,59,variant CD80 IgV-Fc (inert) E35G/K54E/A71D/L72P (Fc fusion)

# From patent US20210130436A1
